We go through six molecules from article PMC3969220, “N-terminus oligomerization is conserved in intracellular calcium release channels” (Biochemical Journal, 2014).

Where “and” joins values, the source holds several entries; their conditions need not be identical. Identical values can stand only once.

For series [1], the target named is calpain-cleaved ~150 kDa N-terminal fragment of native RyR1 from rabbit skeletal muscle SR (rabbit (endogenous in skeletal muscle SR)). Briefly: cross-linking; rabbit skeletal muscle SR pre-treated with 10 mM DTT, cleaved with calpain-2, centrifuged; resuspended SR pellet incubated with 0.0025% glutaraldehyde; SDS/PAGE (4% gels), Western blot with Ab2142.
The target is the same in series [2]. In words: cross-linking; rabbit skeletal muscle SR pre-treated with 10 mM DTT, cleaved with calpain-2, centrifuged; supernatant (liberated N-terminal fragment only) incubated with 0.0025% glutaraldehyde; SDS/PAGE (4% gels), Western blot with Ab2142.
In series [3] the target is IP3R1^(1–667, K493A), IP3 binding-deficient mutant, c-Myc-tagged, in HEK-293 cells (human). In words: cross-linking; HEK-293 cell homogenates expressing c-Myc-tagged IP3R1 1-667 constructs, pre-treated with 10 mM DTT, without or with 1 or 10 μM IP3, incubated with glutaraldehyde for the indicated times; SDS/PAGE (6% gels), anti-c-Myc Western blot.
Series [4] concerns the target IP3R1 N-terminal domain (residues 1–667, human IP3R1/SI− co-ordinates), c-Myc- or HA-tagged, in HEK-293 cells (human). The description is as above.
Series [5] deals with the molecule itself. Briefly: cross-linking; HEK-293 cell homogenates expressing c-Myc-tagged BT4LR1 or BT4LR3, pre-treated without or with 10 mM DTT, incubated with glutaraldehyde for the indicated times; SDS/PAGE (6% gels), anti-c-Myc Western blot.
Series [6] deals with the molecule itself. In words: not stated; unpublished work (M. Seidel and S. Zissimopoulos).

In the case of “calpain-cleaved ~150 kDa N-terminal fragment of native RyR1 from rabbit skeletal muscle SR (domain or fragment)”, the stoichiometry N in series [1] was 2 and 3 and 4; in series [2], 2 and 3 and 4.
As for “IP3R1^(1–667, K493A), IP3 binding-deficient mutant, c-Myc-tagged, in HEK-293 cells (domain or fragment)”, in series [3], the stoichiometry N was 4.
As for “IP3R1 N-terminal domain (residues 1–667, human IP3R1/SI− co-ordinates), c-Myc- or HA-tagged, in HEK-293 cells (domain or fragment)”, the stoichiometry N in series [4] turned out to be 4.

B1: c-Myc-tagged RyR1 N-terminal fragment (residues 1–915), BT4LR1, in HEK-293 cells (domain or fragment, rabbit, UniProt P11716 1-915, looked up)
chain: MGDGGEGEDEVQFLRTDDEVVLQCSATVLKEQLKLCLAAEGFGNRLCFLEPTSNAQNVPPDLAICCFTLEQSLSVRALQEMLANTVEAGVESSQGGGHRTLLYGHAILLRHAHSRMYLSCLTTSRSMTDKLAFDVGLQEDATGEACWWTMHPASKQRSEGEKVRVGDDLILVSVSSERYLHLSTASGELQVDASFMQTLWNMNPICSCCEEGYVTGGHVLRLFHGHMDECLTISAADSDDQRRLVYYEGGAVCTHARSLWRLEPLRISWSGSHLRWGQPLRIRHVTTGRYLALTEDQGLVVVDACKAHTKATSFCFRVSKEKLDTAPKRDVEGMGPPEIKYGESLCFVQHVASGLWLTYAAPDPKALRLGVLKKKAILHQEGHMDDALFLTRCQQEESQAARMIHSTAGLYNQFIKGLDSFSGKPRGSGPPAGPALPIEAVILSLQDLIGYFEPPSEELQHEEKQSKLRSLRNRQSLFQEEGMLSLVLNCIDRLNVYTTAAHFAEYAGEEAAESWKEIVNLLYELLASLIRGNRANCALFSTNLDWVVSKLDRLEASSGILEVLYCVLIESPEVLNIIQENHIKSIISLLDKHGRNHKVLDVLCSLCVCNGVAVRSNQDLITENLLPGRELLLQTNLINYVTSIRPNIFVGRAEGSTQYGKWYFEVMVDEVVPFLTAQATHLRVGWALTEGYSPYPGGGEGWGGNGVGDDLYSYGFDGLHLWTGHVARPVTSPGQHLLAPEDVVSCCLDLSVPSISFRINGCPVQGVFEAFNLDGLFFPVVSFSAGVKVRFLLGGRHGEFKFLPPPGYAPCHEAVLPRERLRLEPIKEYRREGPRGPHLVGPSRCLSHTDFVPCPVDTVQIVLPPHLERIREKLAENIHELWALTRIEQGWTYGPVRDDNKRLHPCLVNFHSLPE
notes: ryanodine receptor 1 (RyR1), rabbit, residues 1-915; also called c-Myc–BT4LR1
With B1, the “stoichiometry N” value in series [5] is 4.

B2: c-Myc-tagged RyR3 N-terminal fragment (residues 1–911), BT4LR3, in HEK-293 cells (domain or fragment, rabbit, UniProt Q9TS33 1-911, looked up)
chain: MAEGGEGGEDEIQFLRTEDEVVLQCIATVHKEQRKFCLAAEGLGNRLCFLEPTSEAKFIPPDLCVCNFVLEQSLSVRALQEMLANTGENGGEGAAQGGGHRTLLYGHAILLRHSFSGMYLTCLTTSRSQTDKLAFDVGLREHATGEACWWTIHPASKQRSEGEKVRIGDDLILVSVSSERYLHLSISNGNIQVDASFMQTLWNVHPTCSGSSIEEGYLLGGHVVRLFHGHDECLTIPSTDQNDSQHRRIFYEAGGAGTRARSLWRVEPLRISWSGSNIRWGQAFRLRHLTTGHYLALTEDQGLLLQDRGKADTKSTAFSFRPSKETKEKLDSSHKRDIEGMGVPEIKYGDSVCFVQHIASGLWVTYKAQDAKTSRLGPLKRKVILHQEGHMDDGLTLQRCQREESQAARIIRNTTALFSQFVSGNNRTAAPVTLPIEEVLQTLHDLIAYFQPPEEEMQHEDKQNKLRSLKNRQNLFKEEGMLALVLNCIDRLNIYNSVAHFAGIAREESGMAWKEVLSLLYKLLAALIRGNRNTCAQFSNNLDWLISKLDRLESSSGILEVLHCILIESPEALNLIAEGHIKSIISLLDKHGRNHKVLDVLCSLCLCNGVAVRANQNLICDNLLPRRNLLLQTRLINDVTSIRPNIFLGVAEGSAQYKKWYFELIIDQVDPFLTAEPTHLRVGWASSSGYAPYPGGGEGWGGNGVGDDLYSYGFDGLHLWSGRIPRAVASINQHLLKSDDVVSCCLDLGVPSISFRINGQPVQGMFENFNTDGLFFPVMSFSAGVKVRFLMGGRHGEFKFLPPSGYAPCYEALLPKEKMRLEPVKEYKRDAEGVRDLLGTTQFLSQASFIPCPIDTSQVVLPPHLEKIRDRLAENIHELWGMNKIELGWTFGKMRDDNKRQHPCLVEFSKL
notes: ryanodine receptor 3 (RyR3), rabbit, residues 1-911; also called c-Myc–BT4LR3
In the case of B2, the “stoichiometry N” value in series [5] was 4.

B3: truncated RyR2 N-terminal fragment (residues 1–654), of the unpublished observation (domain or fragment, human, UniProt Q92736 1-654, looked up)
chain: MADGGEGEDEIQFLRTDDEVVLQCTATIHKEQQKLCLAAEGFGNRLCFLESTSNSKNVPPDLSICTFVLEQSLSVRALQEMLANTVEKSEGQVDVEKWKFMMKTAQGGGHRTLLYGHAILLRHSYSGMYLCCLSTSRSSTDKLAFDVGLQEDTTGEACWWTIHPASKQRSEGEKVRVGDDLILVSVSSERYLHLSYGNGSLHVDAAFQQTLWSVAPISSGSEAAQGYLIGGDVLRLLHGHMDECLTVPSGEHGEEQRRTVHYEGGAVSVHARSLWRLETLRVAWSGSHIRWGQPFRLRHVTTGKYLSLMEDKNLLLMDKEKADVKSTAFTFRSSKEKLDVGVRKEVDGMGTSEIKYGDSVCYIQHVDTGLWLTYQSVDVKSVRMGSIQRKAIMHHEGHMDDGISLSRSQHEESRTARVIRSTVFLFNRFIRGLDALSKKAKASTVDLPIESVSLSLQDLIGYFHPPDEHLEHEDKQNRLRALKNRQNLFQEEGMINLVLECIDRLHVYSSAAHFADVAGREAGESWKSILNSLYELLAALIRGNRKNCAQFSGSLDWLISRLERLEASSGILEVLHCVLVESPEALNIIKEGHIKSIISLLDKHGRNHKVLDVLCSLCVCHGVAVRSNQHLICDNLLPGRDLLLQTRLVNHVSS
notes: may be the same construct as m10
With B3, in series [6], the “stoichiometry N” value was 4.

For orientation: stoichiometry N means the number of molecules, sites or subunits per partner or assembly.
